Reference: paper PMC8053115

Target: T1, NP C-terminal tail peptide (Influenza A virus A/HK/483/97 (H5N1), UniProt Q9PX50)
T1 chain: DNAEEYDN
Experiment: MST

B1: Cy5 9-mer poly-uridine RNA (XNA)
RNA: UUUUUUUUU
modifications: 2'-O-methyl
B1: no binding.
